According to article PMC11574045, “A cofactor-induced repressive type of transcription factor condensation can be induced by synthetic peptides to suppress tumorigenesis” (The EMBO Journal, 2024):

B1: NEUROD4 (protein, UniProt Q9HD90 1-331, looked up)
Neurogenic differentiation …: MSKTFVKSKEMGELVNTPSWMDKGLGSQNEVKEEESRPGTYGMLSSLTEEHDSIEEEEEEEEDGEKPKRRGPKKKKMTKARLERFRARRVKANARERTRMHGLNDALDNLRRVMPCYSKTQKLSKIETLRLARNYIWALSEVLETGQTPEGKGFVEMLCKGLSQPTSNLVAGCLQLGPQSVLLEKHEDKSPICDSAISVHNFNYQSPGLPSPPYGHMETHLLHLKPQVFKSLGESSFGSHLPDCSTPPYEGPLTPPLSISGNFSLKQDGSPDLEKSYSFMPHYPSSSLSSGHVHSTPFQAGTPRYDVPIDMSYDSYPHHGIGTQLNTVFTE
B2: NFATX (protein, UniProt Q12968 2-1075, looked up)
Nuclear factor of activated …: TTANCGAHDELDFKLVFGEDGAPAPPPPGSRPADLEPDDCASIYIFNVDPPPSTLTTPLCLPHHGLPSHSSVLSPSFQLQSHKNYEGTCEIPESKYSPLGGPKPFECPSIQITSISPNCHQELDAHEDDLQINDPEREFLERPSRDHLYLPLEPSYRESSLSPSPASSISSRSWFSDASSCESLSHIYDDVDSELNEAAARFTLGSPLTSPGGSPGGCPGEETWHQQYGLGHSLSPRQSPCHSPRSSVTDENWLSPRPASGPSSRPTSPCGKRRHSSAEVCYAGSLSPHHSPVPSPGHSPRGSVTEDTWLNASVHGGSGLGPAVFPFQYCVETDIPLKTRKTSEDQAAILPGKLELCSDDQGSLSPARETSIDDGLGSQYPLKKDSCGDQFLSVPSPFTWSKPKPGHTPIFRTSSLPPLDWPLPAHFGQCELKIEVQPKTHHRAHYETEGSRGAVKASTGGHPVVKLLGYNEKPINLQMFIGTADDRYLRPHAFYQVHRITGKTVATASQEIIIASTKVLEIPLLPENNMSASIDCAGILKLRNSDIELRKGETDIGRKNTRVRLVFRVHIPQPSGKVLSLQIASIPVECSQRSAQELPHIEKYSINSCSVNGGHEMVVTGSNFLPESKIIFLEKGQDGRPQWEVEGKIIREKCQGAHIVLEVPPYHNPAVTAAVQVHFYLCNGKRKKSQSQRFTYTPVLMKQEHREEIDLSSVPSLPVPHPAQTQRPSSDSGCSHDSVLSGQRSLICSIPQTYASMVTSSHLPQLQCRDESVSKEQHMIPSPIVHQPFQVTPTPPVGSSYQPMQTNVVYNGPTCLPINAASSQEFDSVLFQQDATLSGLVNLGCQPLSSIPFHSSNSGSTGHLLAHTPHSVHTLPHLQSMGYHCSNTGQRSLSSPVADQITGQPSSQLQPITYGPSHSGSATTASPAASHPLASSPLSGPPSPQLQPMPYQSPSSGTASSPSPATRMHSGQHSTQAQSTGQGGLSAPSSLICHSLCDPASFPPDGATVSIKPEPEDREPNFATIGLQDITLDDVNEIIGRDMSQISVSQGAGVSRQAPLPSPESLDLGRSDGL
B3: NFATC1 (protein, UniProt O95644 1-943, looked up)
Nuclear factor of activated …: MPSTSFPVPSKFPLGPAAAVFGRGETLGPAPRAGGTMKSAEEEHYGYASSNVSPALPLPTAHSTLPAPCHNLQTSTPGIIPPADHPSGYGAALDGGPAGYFLSSGHTRPDGAPALESPRIEITSCLGLYHNNNQFFHDVEVEDVLPSSKRSPSTATLSLPSLEAYRDPSCLSPASSLSSRSCNSEASSYESNYSYPYASPQTSPWQSPCVSPKTTDPEEGFPRGLGACTLLGSPRHSPSTSPRASVTEESWLGARSSRPASPCNKRKYSLNGRQPPYSPHHSPTPSPHGSPRVSVTDDSWLGNTTQYTSSAIVAAINALTTDSSLDLGDGVPVKSRKTTLEQPPSVALKVEPVGEDLGSPPPPADFAPEDYSSFQHIRKGGFCDQYLAVPQHPYQWAKPKPLSPTSYMSPTLPALDWQLPSHSGPYELRIEVQPKSHHRAHYETEGSRGAVKASAGGHPIVQLHGYLENEPLMLQLFIGTADDRLLRPHAFYQVHRITGKTVSTTSHEAILSNTKVLEIPLLPENSMRAVIDCAGILKLRNSDIELRKGETDIGRKNTRVRLVFRVHVPQPSGRTLSLQVASNPIECSQRSAQELPLVEKQSTDSYPVVGGKKMVLSGHNFLQDSKVIFVEKAPDGHHVWEMEAKTDRDLCKPNSLVVEIPPFRNQRITSPVHVSFYVCNGKRKRSQYQRFTYLPANVPIIKTEPTDDYEPAPTCGPVSQGLSPLPRPYYSQQLAMPPDPSSCLVAGFPPCPQRSTLMPAAPGVSPKLHDLSPAAYTKGVASPGHCHLGLPQPAGEAPAVQDVPRPVATHPGSPGQPPPALLPQQVSAPPSSSCPPGLEHSLCPSSPSPPLPPATQEPTCLQPCSPACPPATGRPQHLPSTVRRDESPTAGPRLLPEVHEDGSPNLAPIPVTVKREPEELDQLYLDDVNEIIRNDLSSTSTHS
B4: MYSM1 (protein, UniProt Q5VVJ2 1-828, looked up)
Deubiquitinase MYSM1: MAAEEADVDIEGDVVAAAGAQPGSGENTASVLQKDHYLDSSWRTENGLIPWTLDNTISEENRAVIEKMLLEEEYYLSKKSQPEKVWLDQKEDDKKYMKSLQKTAKIMVHSPTKPASYSVKWTIEEKELFEQGLAKFGRRWTKISKLIGSRTVLQVKSYARQYFKNKVKCGLDKETPNQKTGHNLQVKNEDKGTKAWTPSCLRGRADPNLNAVKIEKLSDDEEVDITDEVDELSSQTPQKNSSSDLLLDFPNSKMHETNQGEFITSDSQEALFSKSSRGCLQNEKQDETLSSSEITLWTEKQSNGDKKSIELNDQKFNELIKNCNKHDGRGIIVDARQLPSPEPCEIQKNLNDNEMLFHSCQMVEESHEEEELKPPEQEIEIDRNIIQEEEKQAIPEFFEGRQAKTPERYLKIRNYILDQWEICKPKYLNKTSVRPGLKNCGDVNCIGRIHTYLELIGAINFGCEQAVYNRPQTVDKVRIRDRKDAVEAYQLAQRLQSMRTRRRRVRDPWGNWCDAKDLEGQTFEHLSAEELAKRREEEKGRPVKSLKVPRPTKSSFDPFQLIPCNFFSEEKQEPFQVKVASEALLIMDLHAHVSMAEVIGLLGGRYSEVDKVVEVCAAEPCNSLSTGLQCEMDPVSQTQASETLAVRGFSVIGWYHSHPAFDPNPSLRDIDTQAKYQSYFSRGGAKFIGMIVSPYNRNNPLPYSQITCLVISEEISPDGSYRLPYKFEVQQMLEEPQWGLVFEKTRWIIEKYRLSHSSVPMDKIFRRDSDLTCLQKLLECMRKTLSKVTNCFMAEEFLTEIENLFLSNYKSNQENGVTEENCTKELLM
B5: NEUROG2 (protein, UniProt Q9H2A3 1-272, looked up)
Neurogenin-2: MFVKSETLELKEEEDVLVLLGSASPALAALTPLSSSADEEEEEEPGASGGARRQRGAEAGQGARGGVAAGAEGCRPARLLGLVHDCKRRPSRARAVSRGAKTAETVQRIKKTRRLKANNRERNRMHNLNAALDALREVLPTFPEDAKLTKIETLRFAHNYIWALTETLRLADHCGGGGGGLPGALFSEAVLLSPGGASAALSSSGDSPSPASTWSCTNSPAPSSSVSSNSTSPYSCTLSPASPAGSDMDYWQPPPPDKHRYAPHLPIARDCI
B6: ATF2 (protein, UniProt P16951 1-487, looked up)
Cyclic AMP-dependent …: MSDDKPFLCTAPGCGQRFTNEDHLAVHKHKHEMTLKFGPARNDSVIVADQTPTPTRFLKNCEEVGLFNELASPFENEFKKASEDDIKKMPLDLSPLATPIIRSKIEEPSVVETTHQDSPLPHPESTTSDEKEVPLAQTAQPTSAIVRPASLQVPNVLLTSSDSSVIIQQAVPSPTSSTVITQAPSSNRPIVPVPGPFPLLLHLPNGQTMPVAIPASITSSNVHVPAAVPLVRPVTMVPSVPGIPGPSSPQPVQSEAKMRLKAALTQQHPPVTNGDTVKGHGSGLVRTQSEESRPQSLQQPATSTTETPASPAHTTPQTQNTSGRRRRAANEDPDEKRRKFLERNRAAASRCRQKRKVWVQSLEKKAEDLSSLNGQLQSEVTLLRNEVAQLKQLLLAHKDCPVTAMQKKSGYHTADKDDSSEDLSVPSSPHTEAIQHSSVSTSNGVSSTSKAEAVATSVLTQMADQSTEPALSQIVMAPPSQAQPSGS
B7: NEUROD (protein, UniProt Q13562 1-356, looked up)
Neurogenic differentiation …: MTKSYSESGLMGEPQPQGPPSWTDECLSSQDEEHEADKKEDDLETMNAEEDSLRNGGEEEDEDEDLEEEEEEEEEDDDQKPKRRGPKKKKMTKARLERFKLRRMKANARERNRMHGLNAALDNLRKVVPCYSKTQKLSKIETLRLAKNYIWALSEILRSGKSPDLVSFVQTLCKGLSQPTTNLVAGCLQLNPRTFLPEQNQDMPPHLPTASASFPVHPYSYQSPGLPSPPYGTMDSSHVFHVKPPPHAYSAALEPFFESPLTDCTSPSFDGPLSPPLSINGNFSFKHEPSAEFEKNYAFTMHYPAATLAGAQSHGSIFSGTAAPRCEIPIDNIMSFDSHSHHERVMSAQLNAIFHD
B8: NFIL3 (protein, UniProt Q16649 1-462, looked up)
Nuclear factor …: MQLRKMQTVKKEQASLDASSNVDKMMVLNSALTEVSEDSTTGEELLLSEGSVGKNKSSACRRKREFIPDEKKDAMYWEKRRKNNEAAKRSREKRRLNDLVLENKLIALGEENATLKAELLSLKLKFGLISSTAYAQEIQKLSNSTAVYFQDYQTSKSNVSSFVDEHEPSMVSSSCISVIKHSPQSSLSDVSEVSSVEHTQESSVQGSCRSPENKFQIIKQEPMELESYTREPRDDRGSYTASIYQNYMGNSFSGYSHSPPLLQVNRSSSNSPRTSETDDGVVGKSSDGEDEQQVPKGPIHSPVELKHVHATVVKVPEVNSSALPHKLRIKAKAMQIKVEAFDNEFEATQKLSSPIDMTSKRHFELEKHSAPSMVHSSLTPFSVQVTNIQDWSLKSEHWHQKELSGKTQNSFKTGVVEMKDSGYKVSDPENLYLKQGIANLSAEVVSLKRLIATQPISASDSG
B9: NEUROG3 (protein, UniProt Q9Y4Z2 1-214, looked up)
Neurogenin-3: MTPQPSGAPTVQVTRETERSFPRASEDEVTCPTSAPPSPTRTRGNCAEAEEGGCRGAPRKLRARRGGRSRPKSELALSKQRRSRRKKANDRERNRMHNLNSALDALRGVLPTFPDDAKLTKIETLRFAHNYIWALTQTLRIADHSLYALEPPAPHCGELGSPGGSPGDWGSLYSPVSQAGSLSPAASLEERPGLLGATFSACLSPGSLAFSDFL
B10: NEUROD3 (protein, UniProt Q92886 1-237, looked up)
Neurogenin-1: MPARLETCISDLDCASSSGSDLSGFLTDEEDCARLQQAASASGPPAPARRGAPNISRASEVPGAQDDEQERRRRRGRTRVRSEALLHSLRRSRRVKANDRERNRMHNLNAALDALRSVLPSFPDDTKLTKIETLRFAYNYIWALAETLRLADQGLPGGGARERLLPPQCVPCLPGPPSPASDAESWGSGAAAASPLSDPSSPAASEDFTYRPGDPVFSFPSLPKDLLHTTPCFIPYH

These molecules were tested on HEK293FT cells transfected with TF library (assay: Screening of TF condensates based on fluorescent puncta). Conditions: Figure 1B numerical data; TF library screen, one value per transcriptional factor.
Format: cell-based
Method in brief: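 HEK293FT cells were reverse-transfected with Flag- or GAL4-tagged TF plasmids (1.6 μg/ml, PEI). After 60 h, cells were cultured 12 h with or without glucose, then fixed and immunostained with anti-Flag or anti-GAL4 and Alexa 488 secondaries. Fluorescent puncta were imaged over fifty random fields per well by high-content imaging.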

Molecule | Z score of condensed fraction
B1 | 0.614
B2 | -0.5752
B3 | -0.245
B4 | -0.7244
B5 | -1.044
B6 | 2.014
B7 | 0.06185
B8 | -0.6996
B9 | 1.376
B10 | -0.2856
